In patent US20230079439A1, “Compositions and Methods for Enhancing Beta Cell Maturation, Health and Function” (THE REGENTS OF THE UNIVERSITY OF CALIFORNIA, priority 2016, published 2023):

Legend:
human islet cells = experiment: GSIS of dissociated human islet cells after clustered rNL2ED-Fc; assay type: cell-based; conditions: added 4 hours prior to GSIS
Experimental: FIG. 24 depicts insulin secretion by human islet cells after incubation with cross-linked, clustered rNL2ED-Fc. Indicated volume of solution containing cross-linked rNL2ED-Fc (90 μg/ml) or vehicle alone was added to equal numbers of dissociated human islet cells 4 hours prior to determination of GSIS. Stimulated insulin secretion is shown. […] (n=6 wells, representative of 3 separate experiments).
A recombinant protein with the extracellular domain of neuroligin-2 fused to an IgG Fc domain (rNL2ED-Fc) has been made. In contrast to the peptidomimetic agents, which are modeled on the neurexin binding site, this protein should be able to interact with all extracellular neuroligin-2 binding partners. Chemically cross-linked clusters incorporating this protein are made. Clustered complexes that sufficiently mimic endogenous clustered neuroligin-2 promote β-cell maturation and function to a greater degree than the peptidomimetic-based reagents. […] In contrast, rNL2ED monomers had no effect (not shown).

rat islets = experiment: Insulin secretion by rat islets with soluble neuroligin-2; assay type: cell-based; conditions: 20 mM glucose, read-out: half-maximal inhibition of insulin secretion
Experimental: Soluble neuroligin-2 extracellular domain was added to cultures of rat islets at the indicated concentrations. Insulin secretion was then measured (20 mM glucose). […] The soluble protein competes with endogenous, clustered neuroligin for binding to transcellular partners.

B1: rNL2ED monomers: non-clustered recombinant neuroligin-2 extracellular domain (protein, UniProt Q62888 15-678, looked up)
extracellular domain: QRGGGGPGGGAPGGPGLGLGSLGEERFPVVNTAYGRVRGVRRELNNEILGPVVQFLGVPYATPPLGARRFQPPEAPASWPGVRNATTLPPACPQNLHGALPAIMLPVWFTDNLEAAATYVQNQSEDCLYLNLYVPTEDGPLTKKRDEATLNPPDTDIRDSGKKPVMLFLHGGSYMEGTGNMFDGSVLAAYGNVIVATLNYRLGVLGFLSTGDQAAKGNYGLLDQIQALRWLSENIAHFGGDPERITIFGSGAGASCVNLLILSHHSEGLFQKAIAQSGTAISSWSVNYQPLKYTRLLAAKVGCDREDSTEAVECLRRKSSRELVDQDVQPARYHIAFGPVVDGDVVPDDPEILMQQGEFLNYDMLIGVNQGEGLKFVEDSAESEDGVSASAFDFTVSNFVDNLYGYPEGKDVLRETIKFMYTDWADRDNGEMRRKTLLALFTDHQWVAPAVATAKLHADYQSPVYFYTFYHHCQAEGRPEWADAAHGDELPYVFGVPMVGATDLFPCNFSKNDVMLSAVVMTYWTNFAKTGDPNQPVPQDTKFIHTKPNRFEEVVWSKFNSKEKQYLHIGLKPRVRDNYRANKVAFWLELVPHLHNLHTELFTTTTRLPPYATRWPPRTPGPGTSGTRRPPPPATLPPESDIDLGPRAYDRFPGDSRDYSTELS
modifications: extracellular domain
notes: non-clustered recombinant neuroligin-2 extracellular domain
stimulated insulin secretion by human β-cells (human islet cells): had no effect

B2: Soluble neuroligin-2 extracellular domain: soluble protein that competes with endogenous, clustered neuroligin for binding to transcellular partners (protein, UniProt Q8NFZ4 15-677, looked up)
extracellular domain: QRGGGGPGGGAPGGPGLGLGSLGEERFPVVNTAYGRVRGVRRELNNEILGPVVQFLGVPYATPPLGARRFQPPEAPASWPGVRNATTLPPACPQNLHGALPAIMLPVWFTDNLEAAATYVQNQSEDCLYLNLYVPTEDGPLTKKRDEATLNPPDTDIRDPGKKPVMLFLHGGSYMEGTGNMFDGSVLAAYGNVIVATLNYRLGVLGFLSTGDQAAKGNYGLLDQIQALRWLSENIAHFGGDPERITIFGSGAGASCVNLLILSHHSEGLFQKAIAQSGTAISSWSVNYQPLKYTRLLAAKVGCDREDSAEAVECLRRKPSRELVDQDVQPARYHIAFGPVVDGDVVPDDPEILMQQGEFLNYDMLIGVNQGEGLKFVEDSAESEDGVSASAFDFTVSNFVDNLYGYPEGKDVLRETIKFMYTDWADRDNGEMRRKTLLALFTDHQWVAPAVATAKLHADYQSPVYFYTFYHHCQAEGRPEWADAAHGDELPYVFGVPMVGATDLFPCNFSKNDVMLSAVVMTYWTNFAKTGDPNQPVPQDTKFIHTKPNRFEEVVWSKFNSKEKQYLHIGLKPRVRDNYRANKVAFWLELVPHLHNLHTELFTTTTRLPPYATRWPPRPPAGAPGTRRPPPPATLPPEPEPEPGPRAYDRFPGDSRDYSTELS
modifications: extracellular domain
IC50 (rat islets): 9 nM
